The results in this text go back to article PMC6628251, “Structural and Functional Impact of Seven Missense Variants of Phenylalanine Hydroxylase” (Genes, 2019).

Data set [1] deals with the molecule itself. Kind of data set: SEC; MBP-PAH expressed in E. coli XL1 blue without GroEL/ES; MBPTrap HP affinity, then Superdex 200 HR 10/30; 200 mM NaCl, 20 mM HEPES, pH 7.0; percent of oligomers, tetramers and dimers, mean of three column purifications. On the technique in general: SEC sorts molecules by how far they enter the pores of the column.
Data set [2] concerns the molecule itself. Described as above. The source holds these as a separate data set.
Data set [3] concerns the molecule itself. As to the kind of experiment: SEC; MBP-PAH co-expressed with GroEL/ES (pGroELS) in E. coli XL1 blue; MBPTrap HP affinity, then Superdex 200 HR 10/30; 200 mM NaCl, 20 mM HEPES, pH 7.0; percent of oligomers, tetramers and dimers, mean of three column purifications.

The term stoichiometry N denotes the number of molecules, sites or subunits per partner or assembly.

Values joined by “and” are separate entries in the source; they are usually repeats but may differ in a detail not shown here. Equal entries are not always repeated.

B1: human wild type phenylalanine hydroxylase, fusion with maltose-binding protein (enzyme, UniProt P00439 1-452, looked up)
chain: MSTAVLENPGLGRKLSDFGQETSYIEDNCNQNGAISLIFSLKEEVGALAKVLRLFEENDVNLTHIESRPSRLKKDEYEFFTHLDKRSLPALTNIIKILRHDIGATVHELSRDKKKDTVPWFPRTIQELDRFANQILSYGAELDADHPGFKDPVYRARRKQFADIAYNYRHGQPIPRVEYMEEEKKTWGTVFKTLKSLYKTHACYEYNHIFPLLEKYCGFHEDNIPQLEDVSQFLQTCTGFRLRPVAGLLSSRDFLGGLAFRVFHCTQYIRHGSKPMYTPEPDICHELLGHVPLFSDRSFAQFSQEIGLASLGAPDEYIEKLATIYWFTVEFGLCKQGDSIKAYGAGLLSSFGELQYCLSEKPKLLPLELEKTAIQNYTVTEFQPLYYVAESFNDAKEKVRNFAATIPRPFSVRYDPYTQRIEVLDNTQQLKILADSINSEIGILCSALQKIK
notes: phenylalanine hydroxylase (PAH), human, WT cDNA in the pMAL-MBP-c2 vector; also called WT PAH; PAH-MBP fusion protein
With B1, the “stoichiometry N” value in data set [1] is 4 and 2.

B2: human phenylalanine hydroxylase variant p.Ile406Met, fusion with maltose-binding protein (enzyme, UniProt P00439 1-452, looked up)
chain: MSTAVLENPGLGRKLSDFGQETSYIEDNCNQNGAISLIFSLKEEVGALAKVLRLFEENDVNLTHIESRPSRLKKDEYEFFTHLDKRSLPALTNIIKILRHDIGATVHELSRDKKKDTVPWFPRTIQELDRFANQILSYGAELDADHPGFKDPVYRARRKQFADIAYNYRHGQPIPRVEYMEEEKKTWGTVFKTLKSLYKTHACYEYNHIFPLLEKYCGFHEDNIPQLEDVSQFLQTCTGFRLRPVAGLLSSRDFLGGLAFRVFHCTQYIRHGSKPMYTPEPDICHELLGHVPLFSDRSFAQFSQEIGLASLGAPDEYIEKLATIYWFTVEFGLCKQGDSIKAYGAGLLSSFGELQYCLSEKPKLLPLELEKTAIQNYTVTEFQPLYYVAESFNDAKEKVRNFAATMPRPFSVRYDPYTQRIEVLDNTQQLKILADSINSEIGILCSALQKIK
notes: phenylalanine hydroxylase (PAH), human, missense variant from Czech PKU/HPA patients, made by site-directed mutagenesis of pMAL-PAH; Same construct as m1 with one substitution; also called c.1218A>G
As for B2, the “percent of purified protein as dimers” value was determined as 15.6% in data set [2] and 6.9% in data set [3]. For the same protein, the “percent of purified protein as tetramers” value in data set [2] worked out at 34.2%; in data set [3], 37.7%.

B3: human phenylalanine hydroxylase variant p.Asn167Tyr, fusion with maltose-binding protein (enzyme, UniProt P00439 1-452, looked up)
chain: MSTAVLENPGLGRKLSDFGQETSYIEDNCNQNGAISLIFSLKEEVGALAKVLRLFEENDVNLTHIESRPSRLKKDEYEFFTHLDKRSLPALTNIIKILRHDIGATVHELSRDKKKDTVPWFPRTIQELDRFANQILSYGAELDADHPGFKDPVYRARRKQFADIAYYYRHGQPIPRVEYMEEEKKTWGTVFKTLKSLYKTHACYEYNHIFPLLEKYCGFHEDNIPQLEDVSQFLQTCTGFRLRPVAGLLSSRDFLGGLAFRVFHCTQYIRHGSKPMYTPEPDICHELLGHVPLFSDRSFAQFSQEIGLASLGAPDEYIEKLATIYWFTVEFGLCKQGDSIKAYGAGLLSSFGELQYCLSEKPKLLPLELEKTAIQNYTVTEFQPLYYVAESFNDAKEKVRNFAATIPRPFSVRYDPYTQRIEVLDNTQQLKILADSINSEIGILCSALQKIK
notes: phenylalanine hydroxylase (PAH), human, missense variant from Czech PKU/HPA patients, made by site-directed mutagenesis of pMAL-PAH; Same construct as m1 with one substitution; also called c.499A>T
For B3, in data set [2], the “percent of purified protein as dimers” value worked out at 20.2% and the “percent of purified protein as tetramers” value came out at 33.2%. Besides, in data set [3], the “percent of purified protein as dimers” value was determined as 8.5% and the “percent of purified protein as tetramers” value came to 38.8%.

B4: human phenylalanine hydroxylase variant p.Thr200Asn, fusion with maltose-binding protein (enzyme, UniProt P00439 1-452, looked up)
chain: MSTAVLENPGLGRKLSDFGQETSYIEDNCNQNGAISLIFSLKEEVGALAKVLRLFEENDVNLTHIESRPSRLKKDEYEFFTHLDKRSLPALTNIIKILRHDIGATVHELSRDKKKDTVPWFPRTIQELDRFANQILSYGAELDADHPGFKDPVYRARRKQFADIAYNYRHGQPIPRVEYMEEEKKTWGTVFKTLKSLYKNHACYEYNHIFPLLEKYCGFHEDNIPQLEDVSQFLQTCTGFRLRPVAGLLSSRDFLGGLAFRVFHCTQYIRHGSKPMYTPEPDICHELLGHVPLFSDRSFAQFSQEIGLASLGAPDEYIEKLATIYWFTVEFGLCKQGDSIKAYGAGLLSSFGELQYCLSEKPKLLPLELEKTAIQNYTVTEFQPLYYVAESFNDAKEKVRNFAATIPRPFSVRYDPYTQRIEVLDNTQQLKILADSINSEIGILCSALQKIK
notes: phenylalanine hydroxylase (PAH), human, missense variant from Czech PKU/HPA patients, made by site-directed mutagenesis of pMAL-PAH; Same construct as m1 with one substitution; also called c.599C>A
B4: in data set [2], the “percent of purified protein as dimers” value came to 10.5% and the “percent of purified protein as tetramers” value was found to be 40.5%. Besides, in data set [3], the “percent of purified protein as dimers” value was 4.5% and the “percent of purified protein as tetramers” value stood at 43.8%.

B5: human phenylalanine hydroxylase variant p.Gly239Ala, fusion with maltose-binding protein (enzyme, UniProt P00439 1-452, looked up)
chain: MSTAVLENPGLGRKLSDFGQETSYIEDNCNQNGAISLIFSLKEEVGALAKVLRLFEENDVNLTHIESRPSRLKKDEYEFFTHLDKRSLPALTNIIKILRHDIGATVHELSRDKKKDTVPWFPRTIQELDRFANQILSYGAELDADHPGFKDPVYRARRKQFADIAYNYRHGQPIPRVEYMEEEKKTWGTVFKTLKSLYKTHACYEYNHIFPLLEKYCGFHEDNIPQLEDVSQFLQTCTAFRLRPVAGLLSSRDFLGGLAFRVFHCTQYIRHGSKPMYTPEPDICHELLGHVPLFSDRSFAQFSQEIGLASLGAPDEYIEKLATIYWFTVEFGLCKQGDSIKAYGAGLLSSFGELQYCLSEKPKLLPLELEKTAIQNYTVTEFQPLYYVAESFNDAKEKVRNFAATIPRPFSVRYDPYTQRIEVLDNTQQLKILADSINSEIGILCSALQKIK
notes: phenylalanine hydroxylase (PAH), human, missense variant from Czech PKU/HPA patients, made by site-directed mutagenesis of pMAL-PAH; Same construct as m1 with one substitution; also called c.716G>C
In the case of B5, in data set [2], the “percent of purified protein as dimers” value turned out to be 32.8%. For the same protein, in data set [3], the “percent of purified protein as dimers” value stood at 14% and the “percent of purified protein as tetramers” value is 5.5%.

B6: human phenylalanine hydroxylase variant p.Asp229Gly, fusion with maltose-binding protein (enzyme, UniProt P00439 1-452, looked up)
chain: MSTAVLENPGLGRKLSDFGQETSYIEDNCNQNGAISLIFSLKEEVGALAKVLRLFEENDVNLTHIESRPSRLKKDEYEFFTHLDKRSLPALTNIIKILRHDIGATVHELSRDKKKDTVPWFPRTIQELDRFANQILSYGAELDADHPGFKDPVYRARRKQFADIAYNYRHGQPIPRVEYMEEEKKTWGTVFKTLKSLYKTHACYEYNHIFPLLEKYCGFHEDNIPQLEGVSQFLQTCTGFRLRPVAGLLSSRDFLGGLAFRVFHCTQYIRHGSKPMYTPEPDICHELLGHVPLFSDRSFAQFSQEIGLASLGAPDEYIEKLATIYWFTVEFGLCKQGDSIKAYGAGLLSSFGELQYCLSEKPKLLPLELEKTAIQNYTVTEFQPLYYVAESFNDAKEKVRNFAATIPRPFSVRYDPYTQRIEVLDNTQQLKILADSINSEIGILCSALQKIK
notes: phenylalanine hydroxylase (PAH), human, missense variant from Czech PKU/HPA patients, made by site-directed mutagenesis of pMAL-PAH; Same construct as m1 with one substitution; also called c.686A>G
With B6, the “percent of purified protein as dimers” value in data set [2] was 19.3%. In addition, in data set [3], the “percent of purified protein as dimers” value was found to be 10.1% and the “percent of purified protein as tetramers” value came to 10.2%.

B7: human phenylalanine hydroxylase variant p.Phe263Ser, fusion with maltose-binding protein (enzyme, UniProt P00439 1-452, looked up)
chain: MSTAVLENPGLGRKLSDFGQETSYIEDNCNQNGAISLIFSLKEEVGALAKVLRLFEENDVNLTHIESRPSRLKKDEYEFFTHLDKRSLPALTNIIKILRHDIGATVHELSRDKKKDTVPWFPRTIQELDRFANQILSYGAELDADHPGFKDPVYRARRKQFADIAYNYRHGQPIPRVEYMEEEKKTWGTVFKTLKSLYKTHACYEYNHIFPLLEKYCGFHEDNIPQLEDVSQFLQTCTGFRLRPVAGLLSSRDFLGGLAFRVSHCTQYIRHGSKPMYTPEPDICHELLGHVPLFSDRSFAQFSQEIGLASLGAPDEYIEKLATIYWFTVEFGLCKQGDSIKAYGAGLLSSFGELQYCLSEKPKLLPLELEKTAIQNYTVTEFQPLYYVAESFNDAKEKVRNFAATIPRPFSVRYDPYTQRIEVLDNTQQLKILADSINSEIGILCSALQKIK
notes: phenylalanine hydroxylase (PAH), human, missense variant from Czech PKU/HPA patients, made by site-directed mutagenesis of pMAL-PAH; Same construct as m1 with one substitution; also called c.788T>C
Consider B7, for which the “percent of purified protein as dimers” value in data set [2] was 27.1%; in data set [3], 13.6%. In addition, in data set [3], the “percent of purified protein as tetramers” value came to 11%.

B8: human phenylalanine hydroxylase variant p.Ala342Pro, fusion with maltose-binding protein (enzyme, UniProt P00439 1-452, looked up)
chain: MSTAVLENPGLGRKLSDFGQETSYIEDNCNQNGAISLIFSLKEEVGALAKVLRLFEENDVNLTHIESRPSRLKKDEYEFFTHLDKRSLPALTNIIKILRHDIGATVHELSRDKKKDTVPWFPRTIQELDRFANQILSYGAELDADHPGFKDPVYRARRKQFADIAYNYRHGQPIPRVEYMEEEKKTWGTVFKTLKSLYKTHACYEYNHIFPLLEKYCGFHEDNIPQLEDVSQFLQTCTGFRLRPVAGLLSSRDFLGGLAFRVFHCTQYIRHGSKPMYTPEPDICHELLGHVPLFSDRSFAQFSQEIGLASLGAPDEYIEKLATIYWFTVEFGLCKQGDSIKPYGAGLLSSFGELQYCLSEKPKLLPLELEKTAIQNYTVTEFQPLYYVAESFNDAKEKVRNFAATIPRPFSVRYDPYTQRIEVLDNTQQLKILADSINSEIGILCSALQKIK
notes: phenylalanine hydroxylase (PAH), human, missense variant from Czech PKU/HPA patients, made by site-directed mutagenesis of pMAL-PAH; Same construct as m1 with one substitution; also called c.1024G>C
As for B8, the “percent of purified protein as dimers” value in data set [2] came to 22%. Besides, in data set [3], the “percent of purified protein as dimers” value worked out at 15.5% and the “percent of purified protein as tetramers” value was found to be 3.8%.
